Source: publication PMC11089518, “Development of Prolinol Containing Inhibitors of Hypoxanthine–Guanine–Xanthine Phosphoribosyltransferase: Rational Structure-Based Drug Design” (Journal of Medicinal Chemistry, 2024)

How the values were obtained:
[1] = biological target: the molecule itself; assay: crystal structure; human HGPRT (10 mg/mL, 0.4 mM) with inhibitor 1 (0.3 M calcium acetate, 20% PEG 3350) or 5 (0.3 M sodium acetate, 17.5% PEG 3350), hanging drop; oligomer as refined in the asymmetric unit
[2] = biological target: the molecule itself; assay: crystal structure; TbrHGPRT1 (8 mg/mL, 0.3 mM) with inhibitor 4 or 5, 0.2 M MgCl2, 0.1 M Bis-Tris pH 5.0, 20% PEG 3350, hanging drop; oligomer as refined in the asymmetric unit

B1: human hypoxanthine-guanine phosphoribosyltransferase (human HGPRT) (enzyme)
chain: MATRSPGVVISDDEPGYDLDLFCIPNHYAEDLERVFIPHGLIMDRTERLARDVMKEMGGHHIVALCVLKGGYKFFADLLDYIKALNRNSDRSIPMTVDFIRLKSYCNDQSTGDIKVIGGDDLSTLTGKNVLIVEDIIDTGKTMQTLLSLVRQYNPKMVKVASLLVKRTPRSVGYKPDFVGFEIPDKFVVGYALDYNEYFRDLNHVCVISETGKAKYKA
notes: hypoxanthine-guanine phosphoribosyltransferase, human; source: expressed and purified to homogeneity as previously described
[1]
  stoichiometry N: 4

B2: Trypanosoma brucei hypoxanthine-guanine phosphoribosyltransferase isoform 1 (TBrHGPRT1) (enzyme, UniProt Q07010 1-210, looked up)
chain: MEPACKYDFATSVLFTEAELHTRMRGVAQRIADDYSNCNLKPLENPLVIVSVLKGSFVFTADMVRILGDFGVPTRVEFLRASSYGHDTKSCGRVDVKADGLCDIRGKHVLVLEDILDTALTLREVVDSLKKSEPASIKTLVAIDKPGGRKIPFTAEYVVADVPNVFVVGYGLDYDQSYREVRDVVILKPSVYETWGKELERRKAAGEAKR
notes: hypoxanthine-guanine phosphoribosyltransferase isoform HGPRT1 (cytoplasmic) of Trypanosoma brucei; source: expressed and purified to homogeneity as previously described
[2]
  stoichiometry N: 2
